According to patent publication US20250269018A1, “COMBINED CANCER THERAPY WITH AN EPITHELIAL CELL ADHESION MOLECULE (EPCAM) INHIBITOR AND A HEPATOCYTE GROWTH FACTOR RECEPTOR (HGFR) INHIBITOR” (ACADEMIA SINICA, priority 2021, published 2025):

System: HGFR signaling
Test: Western blotting of phosphorylated HGFR, AKT, ERK, FAK in HCT116 cells
Assay type: cell-based, human
Conditions: for phosphorylation of HGFR, AKT, and ERK: FIG. 7D
Description: FIGS. 2A to 2K. EpEX promotes tumor progression via HGFR signaling. (FIG. 2A) WT or EpCAM knockout (KO) HCT116 and HT29 cells treated with HGF (0.5 nM) for 15 min. The phosphorylation of HGFR, AKT, and ERK was examined by Western blotting. (FIG. 2B) WT or KO HCT116 and HT29 cells were treated with HGF (0.5 nM) with 2% FBS for the indicated times. Cell growth was examined by the WST-1 assay. (FIG. 2C) Starved HCT116 cells were treated with HGFR inhibitor SU11274 (SU, 10 μM) for 1 h then treated with 50 nM of EpEX-His for 15 min. The levels of phosphorylated HGFR, EGFR, AKT, and ERK were examined by Western blotting. HCT116 and HT29 cells were treated with 50 nM EpEX and SU (10 μM). (FIG. 2D) Cell growth was examined by WST-1 assay after treatment for indicated time. (FIG. 2E) HCT116 cells were treated with shLuc or HGFR shRNA then treated with 50 nM of EpEX-His for 15 min. The levels of phosphorylated HGFR, EGFR, ERK, and AKT were examined in HGFR knockdown HCT116 cells by Western blotting. (FIG. 2F) The levels of phosphorylated ADAM17 and presenilin 2 were examined by Western blotting. (FIG. 2G) Active β-catenin nuclear translocation was assay by using Western blotting. (H) HCT116 cells were treated with shLuc or HGFR shRNA then treated with 50 nM of EpEX-His for indicated times. Cell growth was examined by the WST-1 assay. (FIG. 2I) HCT116 cells after shLuc and shHGFR treatment were treated with 50 nM of EpEX-His with 2% FBS for 7 days. Colony formation was examined by crystal violet staining.
FIGS. 6A to 6J. EpAb2-6 inhibits EpCAM and HGFR signaling and promotes active β-catenin and Snail protein degradation via activating GSK3β. (FIG. 6A) HCT116 cells were treated with 10 μg/ml control IgG (normal mouse IgG, NMIgG) or mouse EpAb2-6 (EpAb2-6) for 16 h, followed by treatment with EpEX-His (50 nM) for 15 min. Levels of phosphorylated HGFR, AKT, FAK, GSK3β, ERK, ADAM17, and presenilin 2 were examined by Western blotting. (FIG. 6B) HCT116 cells were treated with 10 μg/ml control IgG or mouse EpAb2-6 for 16 h, followed by treatment without or with HGF (0.5 nM) for 15 min. Levels of phosphorylated HGFR, AKT, and ERK were examined by Western blotting. HCT116 cells were treated with mouse EpAb2-6 (10 μg/ml) and HGF (0.5 nM). (FIG. 6C) Cell migration was examined by the wound healing assay at the indicated times. (FIG. 6D) Cell invasion was assessed by a Transwell assay with matrigel after 24 h. (FIG. 6E) HCT116 cells were treated with NMIgG or EpAb2-6 for 6 h and then immunoprecipitated with anti-EpCAM (IP: EpCAM) or anti-HGFR (IP: HGFR) antibodies, followed by Western blotting. (FIG. 6F) EpEX-His (2 μg/ml) co-treated with 1 μg IgG or EpAb2-6 was added to HGFR-Fc-coated (1 μg/ml) ELISA plates and detected by TMB colorimetric peroxidase assay. (FIG. 6G) EMT associated protein levels were detected by Western blotting in HCT116 cells treated with NMIgG or EpAb2-6 for 24 h. (FIG. 6H) Protein expression was analyzed by Western blotting in HCT116 cells after treatment with EpAb2-6 and 2 μM GSK3β inhibitor (BIO) for 24 h. Quantification of the normalized protein expression in the bottom panel. (FIG. 6I) HCT116 cells were treated with 10 μM MG132 and EpAb2-6 for 6 h before cell collection and subsequent Western blotting. (FIG. 6J) Stability of Snail protein in HCT116 cells treated with NMIgG or EpAb2-6. Cells were treated with cyclohexamide (CHX) 100 μg/ml at the indicated intervals and subjected to Western blotting.
FIGS. 7A to 7G. EpAb2-6 binds EpEX and induces apoptosis by F(ab′)2 and inhibits regulated intramembrane proteolysis (RIP) activation and HGFR signaling. (FIG. 7A) Binding affinity of IgG EpAb2-6 (mouse) and F(ab′)2 to EpEX-His (1 μg/ml) coated overnight was checked using ELISA (OD450). (FIG. 7B) HCT116 cells were treated with 100 μg/ml control IgG, Fc, or F(ab′)2 of EpAb2-6 for 24 h. The apoptotic and necrotic cells were quantified by fluorescein annexin V-FITC/PI double labeling. […]

[1] = HCT116, 10 μg/ml 16 h, then EpEX-His 50 nM 15 min

Molecule: MT201: human anti-EpCAM antibody, adecatumumab (MT201)
- phosphorylation of HGFR, AKT, and ERK [1]: did not

Molecule: Cc1[nH]c(C=C2C(=O)Nc3ccc(S(=O)(=O)N(C)c4cccc(Cl)c4)cc32)c(C)c1C(=O)N1CCN(C)CC1 (stereo in doubt) [SU11274, (3Z)-N-(3-Chlorophenyl)-3-({3,5-dimethyl-4-[(4-methylpiperazin-1-yl)carbonyl]-1H-pyrrol-2-yl}methylene)-N-methyl-2-oxo-2,3-dihydro-1H-indole-5-sulfonamide]
- EpEX-mediated ERK and AKT phosphorylation (HCT116 cells, SU 10 μM 1 h, then 50 nM EpEX-His 15 min, FIG. 2C): attenuate EpEX-mediated ERK and AKT phosphorylation

B1: EpAb2-6: anti-EpCAM neutralizing monoclonal antibody targeting EpEX; VH SEQ ID NO: 15, VL SEQ ID NO: 16 (antibody, listed as Homo sapiens, V domains shown)
VH: VKLQESGPELKKPGETVKISCKASGYTFTDYSMHWVKQAPGKGLKWMGWINTETGEPTYADDFKGRFAFSLETSASTAYLQINNLKNEDTATYFCARTAVYWGQGTTVTVSS
VL: DIQMTQSPSSLSASLGERVSLTCRASQEISVSLSWLQQEPDGTIKRLIYATSTLDSGVPKRFSGSRSGSDYSLTISSLESEDFVDYYCLQYASYPWTFGGGTKLEIKRADAAPTVS
- phosphorylation of HGFR, AKT, and ERK [1]: inhibited phosphorylation of HGFR, AKT, and ERK
- phosphorylation of HGFR, AKT, ERK, and FAK (HCT116, 10 μg/ml 16 h, then EpEX-His 50 nM 15 min, vs control IgG, FIG. 6A): decreased phosphorylation of HGFR, AKT, ERK, and FAK
- phosphorylation levels of HGFR, AKT, and ERK (HCT116, 10 μg/ml 16 h, without or with HGF 0.5 nM 15 min, FIG. 6B): significantly decreased
- levels of phosphorylated HGFR (after EpAb2-6 treatment, discussion statement): decreased levels of phosphorylated HGFR
